Results on 11 molecules are retold here after patent US20200277385A1 (LABORATOIRE FRANCAIS DU FRACTIONNEMENT ET DES …, published 2020).

What is called EC50 is the concentration needed to bring the measured effect to its halfway point. Broadly, the IC50 is the concentration needed to halve the response being measured. Read a low IC50 as greater potency.

One test deals with T1, CD303 ectodomain (human, UniProt Q8WTT0 45-213).
T1 construct: also called ectodomain of the human CD303 antigen
T1 sequence: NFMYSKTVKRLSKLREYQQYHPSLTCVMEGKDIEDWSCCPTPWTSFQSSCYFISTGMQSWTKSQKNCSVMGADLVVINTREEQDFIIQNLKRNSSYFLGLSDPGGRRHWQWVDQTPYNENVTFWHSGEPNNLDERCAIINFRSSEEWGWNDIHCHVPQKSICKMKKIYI
In words: ELISA on coated CD303 ectodomain, 5 ng/mL antibody. How it is done: This technique, which uses a colorimetric approach, makes it possible to detect and visualize antigen-antibody interactions. The principle of ELISA is, first, to coat each well of a MaxiSorp plate with 10 ng of the antigen, in this case the CD303 ectodomain. The latter was purchased from the supplier Mybiosource. Second, the various antibodies produced, contained in the supernatant, are all diluted to the same concentration, and contacted with the antigen to allow them to bind. A third step consists in adding the secondary antibodies, HRP-conjugated anti-human antibody, necessary for amplified detection of the antigen-binding of the anti-CD303 antibodies. Lastly, detection is carried out using a solution containing the substrate for the enzyme (3,3′,5,5′-tetramethylbenzidine, or TMB). The appearance of coloring of the substrate indicates the formation of the antigen-antibody complex. The intensity of this coloring is proportional to the amount of enzyme present and thus to the amount of antibody tested bound to the antigen. The reaction is stopped by adding H₂SO₄ (acid). These colors are read using a spectrophotometer at a wavelength of 450 nm.
A concentration of 5 ng/mL is used to classify the humanized antibodies (FIG. 10).
(In general: In an ELISA, binding on a coated surface is turned into a signal by an enzyme label.)

Test [1] deals with T2, human CD303 antigen expressed on cells (human, UniProt Q8WTT0 1-213).
T2 sequence: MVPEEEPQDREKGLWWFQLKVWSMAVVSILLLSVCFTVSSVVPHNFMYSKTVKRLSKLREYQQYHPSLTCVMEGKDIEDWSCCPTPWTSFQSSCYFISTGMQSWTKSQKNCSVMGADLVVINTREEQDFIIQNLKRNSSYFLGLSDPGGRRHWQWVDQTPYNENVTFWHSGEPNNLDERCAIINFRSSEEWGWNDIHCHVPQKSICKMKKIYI
Briefly: cell-based or functional assay.

Test [2] deals with T2, human CD303 antigen expressed on cells. Briefly: flow cytometry on CAL-1 cells. On the procedure:
(§1) The CD303-expressing cells and the antibodies are prepared in diluent (PBS+1% FCS). 1·10⁵ cells are incubated at 4° C. for 30 minutes with 100 μL of antibody (anti-CD303 or negative control) at various concentrations (0-40 μg/mL, final concentration).
(§2) After washing with the diluent, the antibodies are visualized by addition of a phycoerythrin (PE)-coupled goat anti-mouse IgG F(ab′)₂ fragment (100 μL diluted to 1:100 in the diluent) for 45 minutes at 4° C. The cells are then washed and analyzed by flow cytometry (FC500, Beckman Coulter).
In general terms: Flow cytometry measures light scatter and fluorescence of single cells or particles in a stream.

The target is the same in test [3]. In words: flow cytometry on Fcγ chain-CD303 Jurkat cells. How it is done: as §1, §2
Test [4] has as its target T3, FcγRIIIa (CD16a) (UniProt P08637 17-254, limits assumed).
T3 construct: whole, on cells; also called Fcγ receptor III
In words: competition with 3G8-PE for CD16 on NK cells, flow cytometry.

Test [5] addresses T2, human CD303 antigen expressed on cells. In words: cell-based or functional assay. This is another data set of the same source.
Test [6] has as its target T3, FcγRIIIa (CD16a). In words: cell-based or functional assay.

T3 sequence (P08637 17-254 limits assumed): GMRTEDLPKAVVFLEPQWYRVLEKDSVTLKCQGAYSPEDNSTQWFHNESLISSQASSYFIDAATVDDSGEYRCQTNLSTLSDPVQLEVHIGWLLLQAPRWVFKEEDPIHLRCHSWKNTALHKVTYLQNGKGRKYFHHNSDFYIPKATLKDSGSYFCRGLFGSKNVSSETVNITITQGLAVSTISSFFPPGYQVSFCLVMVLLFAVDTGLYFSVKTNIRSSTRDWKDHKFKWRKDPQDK

B1: humanized antibody 102E9H10 (antibody, human IgG1, kappa, V domains shown)
VH: QIHLVQSGPELKKPGESVKISCKASGYTFTDYSMHWVRQAPGQGLKWMGWINTETGEPTYAQDFKGRFVFSLDTSVSTAYLQINSLKNEDTSTYYCTRNGYYVGYYAMDYWGQGTSVTVSS
VL: QIQLTQSPSFLSASPGERVTITCSASSSVIYIHWFQQKPGTAPKLWIYSTSYLASGVPSRFSGSGSGTSYTLTISRMEAEDFATYYCQQRRSYPFTFGGGTKLEIKR
As to B1, the “CD303 ectodomain-binding capacity relative to chimeric antibody 102E9” value with CD303 ectodomain was 80%.

B2: humanized antibody 102E9H9 (antibody, human IgG1, kappa, V domains shown)
VH: QIHLVQSGPELKKPGESVKISCKASGYTFTDYSMHWVKQAPGQGLKWMGWINTETGEPTYADDFKGRFVFSLDTSVSTAYLQINSLKNEDTSTYYCTRNGYYVGYYAMDYWGQGTSVTVSS
VL: QIQLTQSPSFLSASPGERVTITCSASSSVIYIHWFQQKPGTAPKLWIYSTSYLASGVPSRFSGSGSGTSYTLTISRMEAEDFATYYCQQRRSYPFTFGGGTKLEIKR
Regarding B2, in the test with CD303 ectodomain, the “CD303 ectodomain-binding capacity relative to chimeric antibody 102E9” value worked out at 71%.

B3: humanized antibody 102E9H7 (antibody, human IgG1, kappa)
heavy: not shown
light: QIQLTQSPSFLSASPGERVTITCSASSSVIYIHWFQQKPGKAPKLWIYSTSYLASGVPSRFSGSGSGTEYTLTISSMEAEDFATYYCQQRRSYPFTFGGGTKLEIKRTVAAPSVFIFPPSDEQLKSGTASVVCLLNNFYPREAKVQWKVDNALQSGNSQESVTEQDSKDSTYSLSSTLTLSKADYEKHKVYACEVTHQGLSSPVTKSFNRGEC
Turning to B3, the “CD303 ectodomain-binding capacity relative to chimeric antibody 102E9” value with CD303 ectodomain was 76%.

B4: humanized antibody 102E9H6 (antibody, human IgG1, kappa)
heavy: not shown
light: QIQLTQSPSFLSASPGERVTITCSASSSVIYIHWFQQKPGKAPKLWIYSTSYLASGVPSRFSGSGSGTEYTLTISSMEAEDFATYYCQQRRSYPFTFGGGTKLEIKRTVAAPSVFIFPPSDEQLKSGTASVVCLLNNFYPREAKVQWKVDNALQSGNSQESVTEQDSKDSTYSLSSTLTLSKADYEKHKVYACEVTHQGLSSPVTKSFNRGEC
With B4, the “CD303 ectodomain-binding capacity relative to chimeric antibody 102E9” value with CD303 ectodomain was 73%.

B5: chimeric antibody 104C12 (antibody, human IgG1, kappa)
heavy: not shown
light: DLQMTQTPSSLSASLGDRVTISCRASQDINNYLSWYQEKPDGTFKLLIYYTSRLHSGVPSRFSGSGSGTDYSLTVRNLEQEDIGTYFCQQGKTLPWTFGGGTKLEIRRTVAAPSVFIFPPSDEQLKSGTASVVCLLNNFYPREAKVQWKVDNALQSGNSQESVTEQDSKDSTYSLSSTLTLSKADYEKHKVYACEVTHQGLSSPVTKSFNRGEC
notes: Produced in YB2/0
On to B5, for which, in test [1], the “ADCC EC50, Fcγ chain-CD303 Jurkat target cells with NK cells” value (“ADCC EC50” for short) was 0.000214 µg/mL and the “ADCC Emax (% lysis), Fcγ chain-CD303 Jurkat target cells with NK cells” value (“ADCC Emax (% lysis)” below) came to 41.8 % lysis. In test [2], the “Bmax (MFI)” value was 29 MFI and the midpoint of the response, the EC50, lay at 0.345 µg/mL. Also, in test [3], the “Bmax (MFI)” value came to 27.7 MFI and a half-maximal effect (EC50) was put at 0.178 µg/mL. The same molecule showed an IC50 in the test with FcγRIIIa (CD16a) [4] of 26.8 µg/mL.

B6: chimeric antibody 104E10 (antibody, human IgG1, kappa)
heavy: not shown
light: QIVLTQSPAIMSASPGEKVTMTCSASSSVIYMHWFQQKPGTSPKLWIYSTSNLASGVPARFSGSGSGTSYSLTISRMEAEDAATYYCQQRRSYPYTFGGGTKLEIKRTVAAPSVFIFPPSDEQLKSGTASVVCLLNNFYPREAKVQWKVDNALQSGNSQESVTEQDSKDSTYSLSSTLTLSKADYEKHKVYACEVTHQGLSSPVTKSFNRGEC
notes: Produced in YB2/0
Regarding B6, in test [1], the “ADCC EC50” value was 0.00828 µg/mL and the “ADCC Emax (% lysis)” value worked out at 40.5 % lysis. Further, in test [2], the “Bmax (MFI)” value is 29.2 MFI and it took 1.93 µg/mL to reach a half-maximal effect (EC50). In test [3], the “Bmax (MFI)” value was determined as 23.7 MFI and the midpoint of the response, the EC50, lay at 6.06 µg/mL. In addition, the half-maximal inhibitory concentration (IC50) with FcγRIIIa (CD16a) [4] was 18.1 µg/mL.

B7: chimeric antibody 114D11 (antibody, human IgG1, kappa)
heavy: not shown
light: QIVLTQSPAIMSASPGEKVTITCSASSSVFYMHWFQQKPGTSPKLWIYSTSNLASGVPARFSGSGSGTSYSLTISRMEAEDAATYYCQQRRSYPYTFGGGTKLEIKRTVAAPSVFIFPPSDEQLKSGTASVVCLLNNFYPREAKVQWKVDNALQSGNSQESVTEQDSKDSTYSLSSTLTLSKADYEKHKVYACEVTHQGLSSPVTKSFNRGEC
notes: Produced in YB2/0
Take B7: in test [1], the “ADCC EC50” value came out at 0.00361 µg/mL and the “ADCC Emax (% lysis)” value is 37.4 % lysis. Besides, in test [2], the “Bmax (MFI)” value was 30.1 MFI and the EC50 was found to be 1.7 µg/mL. Also, in test [3], the “Bmax (MFI)” value came to 24.7 MFI and the response was half-maximal at 3.98 µg/mL (EC50). This molecule also displayed an IC50 with FcγRIIIa (CD16a) [4] of 45 µg/mL.

B8: humanized antibody 122A2H5 (antibody, human IgG1, kappa)
heavy: not shown
light: DIQMTQSTSSLSASLGDRVTITCQASQDISNYLNWYQQKPDGTVKLLIYYTSRLHTGVPSRFSGSGSGTDYSLTISNLDQEDIATYYCQQGNTLPWTFGGGTKLEIKRTVAAPSVFIFPPSDEQLKSGTASVVCLLNNFYPREAKVQWKVDNALQSGNSQESVTEQDSKDSTYSLSSTLTLSKADYEKHKVYACEVTHQGLSSPVTKSFNRGEC
For B8, in test [5], the “IC50 for IFN-α secretion from pDCs contained in PBMCs” value (“IC50 for IFN-α secretion” for short) was determined as 0.819 ng/mL.

B9: humanized antibody 122A2H10 (antibody, human IgG1, kappa, V domains shown)
VH: QVQLQQSGAEVVKPGASVKISCKGSGYTFTDYSMHWVRQAHAKSLEWIGVISTYYGDSNYNQKFKGKVTMTVDTSSSTAYMELSRLRSDDTAVYYCARNGNFYVMDYWGQGTLVTVSS
VL: DIQMTQSPSSLSASVGDRVTITCQASQDISNYLNWYQQKPDGTVKLLIYYTSRLHTGVPSRFSGSGSGTDYSLTISNLDQEDIATYYCQQGNTLPWTFGGGTKLEIKR
As to B9, the “IC50 for IFN-α secretion” value in test [5] is 0.947 ng/mL.

B10: humanized antibody 122A2H9 (antibody, human IgG1, kappa)
heavy: not shown
light: DIQMTQSPSSLSASVGDRVTITCQASQDISNYLNWYQQKPDGTVKLLIYYTSRLHTGVPSRFSGSGSGTDYSLTISNLDQEDIATYYCQQGNTLPWTFGGGTKLEIKRTVAAPSVFIFPPSDEQLKSGTASVVCLLNNFYPREAKVQWKVDNALQSGNSQESVTEQDSKDSTYSLSSTLTLSKADYEKHKVYACEVTHQGLSSPVTKSFNRGEC
Turning to B10, in test [5], the “IC50 for IFN-α secretion” value amounted to 0.911 ng/mL. Further, in the test with FcγRIIIa (CD16a) [6], the “IL-2 secretion by CD16 Jurkat cells: 50%, with ch122A2 = 1 (Mean)” value is 0.73 ratio to ch122A2; the “IL-2 secretion by CD16 Jurkat cells: 50%, with ch122A2 = 1 (experiment 2126 16 057)” value was 0.66 ratio to ch122A2; the “IL-2 secretion by CD16 Jurkat cells: 50%, with ch122A2 = 1 (experiment 2126 16 059)” value is 0.78 ratio to ch122A2; the “IL-2 secretion by CD16 Jurkat cells: 50%, with ch122A2 = 1 (experiment 2126 16 066)” value was 0.74 ratio to ch122A2.

B11: humanized antibody 122A2H7 (antibody, human IgG1, kappa, V domains shown)
VH: QVQLQQSGAEVVKPGASVKISCKGSGYTFTDYSMHWVRQAPGQGLEWIGVISTYYGDSNYNQKFKGKVTMTVDKSSSTAYMELSRLTSDDTAVYYCARNGNFYVMDYWGQGTLVTVSS
VL: DIQMTQSTSSLSASLGDRVTITCQASQDISNYLNWYQQKPDGTVKLLIYYTSRLHTGVPSRFSGSGSGTDYSLTISNLDQEDIATYYCQQGNTLPWTFGGGTKLEIKR
Take B11: the “IC50 for IFN-α secretion” value in test [5] turned out to be 0.865 ng/mL.
